What was measured:
[1] = target: Listeria phage A118 integrase, N-terminally histidine tagged, full-length (Listeria phage A118); experiment: SEC; FPLC Superdex-200 10/300 GL; 20 mM HEPES pH 7.5, 1 M NaCl, 1 mM DTT, 10% glycerol; 0.4 ml/minute; 23°C
[2] = target: T1, A118 integrase C-terminal domain (HisInt158-452) (Listeria monocytogenes phage A118) (UniProt Q8Y4U8); experiment: EMSA; details: mainly complex I, 20 mM HEPES pH 7.5, 100 mM NaCl, 0.1 mg/ml BSA, 5 mM spermidine, 5 mM DTT, 5% glycerol, 50 ug/ml salmon sperm DNA, about 0.1 pmol probe in 10 ul, 30 C 30 min …
T1 sequence: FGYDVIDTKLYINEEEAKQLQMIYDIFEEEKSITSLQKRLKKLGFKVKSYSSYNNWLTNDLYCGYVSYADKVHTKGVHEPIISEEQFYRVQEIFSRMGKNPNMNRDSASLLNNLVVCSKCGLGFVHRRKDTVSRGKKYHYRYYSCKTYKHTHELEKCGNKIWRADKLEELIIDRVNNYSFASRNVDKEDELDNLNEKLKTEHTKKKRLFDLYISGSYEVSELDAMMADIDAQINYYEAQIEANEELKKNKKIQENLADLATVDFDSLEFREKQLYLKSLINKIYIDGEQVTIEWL

[3] = target: T2, A118 integrase (HisInt) (Listeria monocytogenes phage A118, UniProt Q8Y4U8 1-452); experiment: EMSA; details: 20 mM HEPES pH 7.5, 100 mM NaCl, 0.1 mg/ml BSA, 5 mM spermidine, 5 mM DTT, 5% glycerol, 50 ug/ml salmon sperm DNA, about 0.1 pmol probe in 10 ul, 30 C 30 min …
T2 sequence: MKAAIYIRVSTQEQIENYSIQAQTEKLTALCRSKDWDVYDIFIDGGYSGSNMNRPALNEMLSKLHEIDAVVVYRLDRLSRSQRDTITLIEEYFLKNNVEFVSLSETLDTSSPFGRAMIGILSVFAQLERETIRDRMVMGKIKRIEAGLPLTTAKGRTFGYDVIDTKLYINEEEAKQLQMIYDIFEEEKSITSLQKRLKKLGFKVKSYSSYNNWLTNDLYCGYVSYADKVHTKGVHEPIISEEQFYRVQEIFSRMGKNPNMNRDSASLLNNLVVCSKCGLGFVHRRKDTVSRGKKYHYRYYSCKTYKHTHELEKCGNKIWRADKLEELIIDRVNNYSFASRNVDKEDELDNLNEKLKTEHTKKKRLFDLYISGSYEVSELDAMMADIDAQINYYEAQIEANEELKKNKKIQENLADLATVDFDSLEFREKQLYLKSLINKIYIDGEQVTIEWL

[4] = target: T2, A118 integrase (HisInt); experiment: EMSA; 810 nM; 20 mM HEPES pH 7.5, 100 mM NaCl, 0.1 mg/ml BSA, 5 mM spermidine, 5 mM DTT, 5% glycerol, 50 ug/ml salmon sperm DNA, about 0.1 pmol probe in 10 ul, 30 C 30 min; 6% PAGE in 0.5x TBE at room temperature; details: protein: recombinant; tags: N-terminal His (pET15b); chain copies: 2; label: 32P; blunt
[5] = target: T3, A118 integrase C-terminal domain (HisInt158-452) (Listeria monocytogenes phage A118, UniProt Q8Y4U8 158-452); experiment: as above; details: protein: recombinant; tags: N-terminal His (pET15b); label: 32P; blunt
T3 sequence: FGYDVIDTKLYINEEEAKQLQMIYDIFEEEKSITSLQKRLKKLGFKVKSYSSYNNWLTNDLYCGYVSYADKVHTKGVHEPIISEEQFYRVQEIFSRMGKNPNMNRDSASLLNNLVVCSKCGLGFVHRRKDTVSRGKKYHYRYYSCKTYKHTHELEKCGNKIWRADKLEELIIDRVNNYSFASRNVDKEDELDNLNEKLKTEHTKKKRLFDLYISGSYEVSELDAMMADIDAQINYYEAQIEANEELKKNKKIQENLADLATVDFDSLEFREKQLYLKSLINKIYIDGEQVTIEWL

[6] = target: T2, A118 integrase (HisInt); experiment: protease protection; twofold molar excess of DNA; chymotrypsin or proteinase K; 20 mM HEPES pH 7.5, 100 mM NaCl, 0.1 mg/ml BSA, 5 mM spermidine, 5 mM DTT, 5% glycerol, 50 ug/ml salmon sperm DNA, about 0.1 pmol probe in 10 ul, 30 C 30 min; 6% PAGE in 0.5x TBE at room temperature; details: protein: recombinant; tags: N-terminal His (pET15b); chain copies: 2; blunt
[7] = target: T2, A118 integrase (HisInt); experiment: EMSA; predominantly dimer; 20 mM HEPES pH 7.5, 100 mM NaCl, 0.1 mg/ml BSA, 5 mM spermidine, 5 mM DTT, 5% glycerol, 50 ug/ml salmon sperm DNA, about 0.1 pmol probe in 10 ul, 30 C 30 min; 6% PAGE in 0.5x TBE at room temperature; details: protein: recombinant; tags: N-terminal His (pET15b); chain copies: 2; label: 32P; blunt
[8] = dimer complex, apparent, panel assignment by order

Question: How did the stoichiometry N [1] turn out when “Listeria phage A118 integrase, N-terminally histidine tagged, full-length (enzyme)” was run?
Answer: 2

Question: Which Kd ([2]; binds much less than attP) does the source give for attB 100 bp here?
Answer: > 800 nM

Question: And the Kd [3]?
Answer: 72 nM

Question: With attL 100 bp as the molecule, how does the Kd [3, 8] read?
Answer: 75 nM

Question: Which results are given for attP 100 bp?
Answer: Kd [2]: 145 nM; Kd [3]: 48 nM

Question: For attR 100 bp, which Kd [3, 8] is on record?
Answer: 60 nM

B1: attP -oP' half-site (dsDNA)
DNA 1: GCCCGACCAAGTTCGCGCAGGAGGGGAAGAAGAAGAAACGAGAAACTAAA
DNA 2: TTTAGTTTCTCGTTTCTTCTTCTTCCCCTCCTGCGCGAACTTGGTCGGGC
Question: Does B1 bind [4]?
Answer: no binding

Question: Does B1 bind [5]?
Answer: no binding

B2: attB -oB' half-site (dsDNA)
DNA 1: CCGCGCATAGGAGGAACCCTGGGACGCAAAGAGGGAACTAAACA
DNA 2: TGTTTAGTTCCCTCTTTGCGTCCCAGGGTTCCTCCTATGCGCGG
Question: Does B2 bind [4]?
Answer: no binding

B3: attP 50 bp (dsDNA)
DNA 1: TTTAGTTCCTCGTTTTCTCTCGTTGGAAGAAGAAGAAACGAGAAACTAAA
DNA 2: TTTAGTTTCTCGTTTCTTCTTCTTCCAACGAGAGAAAACGAGGAACTAAA
Question: Does B3 bind [6]?
Answer: binds

B4: attP Po- half-site (dsDNA)
DNA 1: TTTAGTTCCTCGTTTTCTCTCGTTGGACTCCTCCTCGCTCGTCCCAGCCC
DNA 2: GGGCTGGGACGAGCGAGGAGGAGTCCAACGAGAGAAAACGAGGAACTAAA
Question: With B4 as the molecule, how does the Kd [7] read?
Answer: ~1000 nM

Source: PMC3556126, “The site-specific integration reaction of Listeria phage A118 integrase, a serine recombinase”
